Assay results reported in US20260116944A1, “NOVEL TRIPLE GLP-1/GIP/GLUCAGON RECEPTOR AGONIST AND A PHARMACEUTICAL COMPOSITION FOR PREVENTING OR TREATING OBESITY COMPRISING THE SAME” (HANMI PHARM. CO., LTD., priority 2022, published 2026).
Each block holds one binder with its values, some of them ahead of it. *1 amine or outer side, *2 acyl side, *3 side chain or, on linkers, in order; H or OH if unused. Bridges are numbered along the chain shown (N, C = ends). Where no end group is shown, it is not given here. Side-chain parts run from the residue outwards. [ ]: non-standard residue; d: D form. The star is where a group is joined. C20 diacid = O=C(O)CCCCCCCCCCCCCCCCCCC(=O)*; γGlu = O=C(O)[C@H](CCC(=O)[*:2])N[*:1]; AEEA = NCCOCCOCC(=O)O; Aib = CC(C)(N)C(=O)O

What was measured:
Experiment in all cases: cell-based or functional assay
[1] = target: T1, human GIP receptor (human, UniProt P48546 22-466)
T1 sequence (looked up): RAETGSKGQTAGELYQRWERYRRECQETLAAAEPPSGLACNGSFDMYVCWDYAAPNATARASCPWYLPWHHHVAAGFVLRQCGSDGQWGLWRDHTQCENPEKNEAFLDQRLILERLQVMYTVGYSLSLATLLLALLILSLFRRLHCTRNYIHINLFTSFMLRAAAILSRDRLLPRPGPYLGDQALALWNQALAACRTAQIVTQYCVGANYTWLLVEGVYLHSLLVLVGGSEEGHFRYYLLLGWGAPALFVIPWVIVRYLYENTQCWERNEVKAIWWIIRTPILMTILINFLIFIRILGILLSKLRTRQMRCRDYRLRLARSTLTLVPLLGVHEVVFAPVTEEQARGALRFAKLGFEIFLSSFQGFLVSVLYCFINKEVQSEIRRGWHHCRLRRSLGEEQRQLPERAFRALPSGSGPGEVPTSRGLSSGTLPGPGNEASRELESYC

[2] = target: human GCG receptor (human, UniProt P47871 26-477)
[3] = target: human GLP-1 receptor (human, UniProt P43220 24-463)

Chain of human GCG receptor (P47871 26-477): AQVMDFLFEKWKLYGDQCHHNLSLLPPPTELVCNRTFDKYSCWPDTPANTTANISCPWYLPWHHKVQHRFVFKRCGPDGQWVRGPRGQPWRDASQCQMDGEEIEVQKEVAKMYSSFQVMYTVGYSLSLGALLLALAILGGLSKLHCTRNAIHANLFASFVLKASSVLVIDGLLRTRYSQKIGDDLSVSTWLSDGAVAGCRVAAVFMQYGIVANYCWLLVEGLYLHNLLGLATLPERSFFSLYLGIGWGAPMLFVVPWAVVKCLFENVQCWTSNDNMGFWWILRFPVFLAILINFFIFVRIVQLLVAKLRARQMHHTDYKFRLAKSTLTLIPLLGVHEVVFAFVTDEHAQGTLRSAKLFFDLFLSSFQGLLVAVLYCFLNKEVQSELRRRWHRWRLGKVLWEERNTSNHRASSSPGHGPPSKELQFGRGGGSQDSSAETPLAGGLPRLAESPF

In vitro Activity Compared to Native Peptide (%) vs. GIP (relative titer from cAMP EC50) [1]: 7.04 % of human GIP
In vitro Activity Compared to Native Peptide (%) vs. Glucagon (relative titer from cAMP EC50) [2]: 0.4 % of human GCG
In vitro Activity Compared to Native Peptide (%) vs. GLP-1 (relative titer from cAMP EC50) [3]: 5.52 % of human GLP-1
B1: triple agonist of SEQ ID NO: 3 (peptide)
peptide: Y[Aib]QGTFTSDYSK([AEEA-AEEA-γGlu-C20 diacid])YLDEKAAKDFVQWLLDQHPSSGQPPPS-NH2
modifications: lactam 16-20; N-terminus assumed
SMILES: CC(C)C[C@H](NC(=O)[C@H](Cc1ccc(O)cc1)NC(=O)[C@H](CCCCNC(=O)COCCOCCNC(=O)COCCOCCNC(=O)CC[C@H](NC(=O)CCCCCCCCCCCCCCCCCCC(=O)O)C(=O)O)NC(=O)[C@H](CO)NC(=O)[C@H](Cc1ccc(O)cc1)NC(=O)[C@H](CC(=O)O)NC(=O)[C@H](CO)NC(=O)[C@@H](NC(=O)[C@H](Cc1ccccc1)NC(=O)[C@@H](NC(=O)CNC(=O)[C@H](CCC(N)=O)NC(=O)C(C)(C)NC(=O)[C@@H](N)Cc1ccc(O)cc1)[C@@H](C)O)[C@@H](C)O)C(=O)N[C@@H](CC(=O)O)C(=O)N[C@H]1CCC(=O)NCCCC[C@@H](C(=O)N[C@@H](CC(=O)O)C(=O)N[C@@H](Cc2ccccc2)C(=O)N[C@H](C(=O)N[C@@H](CCC(N)=O)C(=O)N[C@@H](Cc2c[nH]c3ccccc23)C(=O)N[C@@H](CC(C)C)C(=O)N[C@@H](CC(C)C)C(=O)N[C@@H](CC(=O)O)C(=O)N[C@@H](CCC(N)=O)C(=O)N[C@@H](Cc2c[nH]cn2)C(=O)N2CCC[C@H]2C(=O)N[C@@H](CO)C(=O)N[C@@H](CO)C(=O)NCC(=O)N[C@@H](CCC(N)=O)C(=O)N2CCC[C@H]2C(=O)N2CCC[C@H]2C(=O)N2CCC[C@H]2C(=O)N[C@@H](CO)C(N)=O)C(C)C)NC(=O)[C@H](C)NC(=O)[C@H](C)NC(=O)[C@H](CCCCN)NC1=O

In vitro Activity Compared to Native Peptide (%) vs. GIP (relative titer from cAMP EC50) [1]: 2.17 % of human GIP
In vitro Activity Compared to Native Peptide (%) vs. Glucagon (relative titer from cAMP EC50) [2]: 3.35 % of human GCG
In vitro Activity Compared to Native Peptide (%) vs. GLP-1 (relative titer from cAMP EC50) [3]: 3.87 % of human GLP-1
B2: triple agonist of SEQ ID NO: 2 (peptide)
peptide: Y[Aib]QGTFTSDYSK([AEEA-AEEA-γGlu-C20 diacid])YLDEKRAKEFVQWLLDHHPSSGQPPPS-NH2
modifications: lactam 16-20; N-terminus assumed
SMILES: CC(C)C[C@H](NC(=O)[C@H](Cc1ccc(O)cc1)NC(=O)[C@H](CCCCNC(=O)COCCOCCNC(=O)COCCOCCNC(=O)CC[C@H](NC(=O)CCCCCCCCCCCCCCCCCCC(=O)O)C(=O)O)NC(=O)[C@H](CO)NC(=O)[C@H](Cc1ccc(O)cc1)NC(=O)[C@H](CC(=O)O)NC(=O)[C@H](CO)NC(=O)[C@@H](NC(=O)[C@H](Cc1ccccc1)NC(=O)[C@@H](NC(=O)CNC(=O)[C@H](CCC(N)=O)NC(=O)C(C)(C)NC(=O)[C@@H](N)Cc1ccc(O)cc1)[C@@H](C)O)[C@@H](C)O)C(=O)N[C@@H](CC(=O)O)C(=O)N[C@H]1CCC(=O)NCCCC[C@@H](C(=O)N[C@@H](CCC(=O)O)C(=O)N[C@@H](Cc2ccccc2)C(=O)N[C@H](C(=O)N[C@@H](CCC(N)=O)C(=O)N[C@@H](Cc2c[nH]c3ccccc23)C(=O)N[C@@H](CC(C)C)C(=O)N[C@@H](CC(C)C)C(=O)N[C@@H](CC(=O)O)C(=O)N[C@@H](Cc2c[nH]cn2)C(=O)N[C@@H](Cc2c[nH]cn2)C(=O)N2CCC[C@H]2C(=O)N[C@@H](CO)C(=O)N[C@@H](CO)C(=O)NCC(=O)N[C@@H](CCC(N)=O)C(=O)N2CCC[C@H]2C(=O)N2CCC[C@H]2C(=O)N2CCC[C@H]2C(=O)N[C@@H](CO)C(N)=O)C(C)C)NC(=O)[C@H](C)NC(=O)[C@H](CCCNC(=N)N)NC(=O)[C@H](CCCCN)NC1=O
